This experiment has as its target AAV8 capsids (adeno-associated virus 8 (AAV8)). Description: BLI (ForteBio), control ligand on sensor, AAV8 capsids 5x10^11 particles/mL, response after 4000 s. In general terms: BLI is a label-free optical method that tracks binding on a fibre tip over time.

In turn, “Non-binding ligand (control) (designed binder)” returned a Response of 0.03.

(Values after US20240026344A1.)
